Data as given in paper PMC8152684.

Substrate: NC(=O)C[C@H](N)C(=O)O
Assay: purified protein
Details: free enzyme in solution, 50 mM Tris-HCl pH 8.6, 37 °C

B1: L-asparaginase (Asp) (Escherichia coli K-12) (protein)
chain: LPNITILATGGTIAGGGDSATKSNYTVGKVGVENLVNAVPQLKDIANVKGEQVVNIGSQDMNDNVWLTLAKKINTDCDKTDGFVITHGTDTMEETAYFLDLTVKCDKPVVMVGAMRPSTSMSADGPFNLYNAVVTAADKASANRGVLVVMNDTVLDGRDVTKTNTTDVATFKSVNYGPLGYIHNGKIDYQRTPARKHTSDTPFDVSKLNELPKVGIVYNYANASDLPAKALVDAGYDGIVSAGVGNGNLYKSVFDTLATAAKTGTAVVRSSRVPTGATTQDAEVDDAKYGFVASGTLNPQKARVLLQLALTQTKDPQQIQQIFNQY
  Km: 140 µM
